Each block holds one molecule with its values, some of them ahead of it.
How the values were obtained:
3×MBT domain of L3MBTL1 = assay: Triple SILAC pull-down, 3xMBT/3xMBTD355N ratio (cytoplasmic, nuclear and chromatin fractions of 293T cells); type: binding, human; conditions: for 3xMBT/D355N UNC Heavy: experiment with UNC0638 in heavy SILAC media; for 3xMBT/D355N UNC Light: experiment with UNC0638 in light SILAC media;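 on all read-outs here: proteins quantified with MaxQuant, requiring at least two unique peptides and quantification in both label directions, normalized to the mean of proteins from a digested loading control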
G9a and GLP = target: T1, G9a and GLP (Homo sapiens, UniProt Q96KQ7+Q9H9B1); assay: Triple SILAC pull-down after UNC0638 treatment of 293T cells, DMSO/UNC0638 ratio of protein captured by 3×MBT; type: cell-based; design: endogenous in cells; host or cells: HEK 293T; conditions: for Relative to UNC0638 UNC Light: UNC0638 in light SILAC media; for Relative to UNC0638 Average: average of UNC Light and UNC Heavy experiments; for Relative to UNC0638 UNC Heavy: UNC0638 in heavy SILAC media; for Candidate G9a/GLP target: reduced association with 3xMBT after UNC0638 treatment;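 on all read-outs here: mass spectrometry (Q-Exactive) SILAC quantitation, DMSO/UNC0638 ratio computed after subtracting 3×MBTD355N mutant pull-down background, only proteins with at least twofold 3×MBT over mutant signal considered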
T1 sequence (Q96KQ7 2-1210 limits assumed): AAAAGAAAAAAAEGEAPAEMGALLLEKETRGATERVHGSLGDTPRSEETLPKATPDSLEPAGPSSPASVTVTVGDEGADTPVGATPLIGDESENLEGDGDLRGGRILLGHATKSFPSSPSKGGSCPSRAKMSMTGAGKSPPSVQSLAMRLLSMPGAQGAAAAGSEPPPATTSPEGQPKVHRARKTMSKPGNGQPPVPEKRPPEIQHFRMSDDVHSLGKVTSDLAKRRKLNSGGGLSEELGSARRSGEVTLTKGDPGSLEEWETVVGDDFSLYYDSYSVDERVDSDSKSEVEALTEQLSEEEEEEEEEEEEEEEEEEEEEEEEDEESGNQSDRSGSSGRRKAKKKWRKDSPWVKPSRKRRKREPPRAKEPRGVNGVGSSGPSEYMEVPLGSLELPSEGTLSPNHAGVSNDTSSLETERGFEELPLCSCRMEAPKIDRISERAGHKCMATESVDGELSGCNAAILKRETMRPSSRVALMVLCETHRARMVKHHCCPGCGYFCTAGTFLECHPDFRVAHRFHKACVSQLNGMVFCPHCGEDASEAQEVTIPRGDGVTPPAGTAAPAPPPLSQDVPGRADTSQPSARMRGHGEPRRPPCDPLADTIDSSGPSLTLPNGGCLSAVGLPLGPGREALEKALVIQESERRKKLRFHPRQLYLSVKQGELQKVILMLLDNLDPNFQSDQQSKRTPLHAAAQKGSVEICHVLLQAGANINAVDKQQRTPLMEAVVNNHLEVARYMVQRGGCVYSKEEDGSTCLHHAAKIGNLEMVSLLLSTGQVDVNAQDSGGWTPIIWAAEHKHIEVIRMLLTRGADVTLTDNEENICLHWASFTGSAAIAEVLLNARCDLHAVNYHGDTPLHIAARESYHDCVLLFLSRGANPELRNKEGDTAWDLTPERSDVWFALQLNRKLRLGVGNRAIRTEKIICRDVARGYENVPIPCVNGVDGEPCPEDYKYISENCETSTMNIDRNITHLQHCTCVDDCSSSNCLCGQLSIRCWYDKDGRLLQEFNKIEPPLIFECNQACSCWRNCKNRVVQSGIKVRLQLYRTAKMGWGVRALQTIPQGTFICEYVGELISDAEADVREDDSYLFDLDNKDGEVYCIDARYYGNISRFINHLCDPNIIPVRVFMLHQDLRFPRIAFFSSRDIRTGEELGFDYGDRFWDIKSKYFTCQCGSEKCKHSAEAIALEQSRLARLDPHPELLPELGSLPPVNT
T1 sequence (Q9H9B1 2-1298 limits assumed): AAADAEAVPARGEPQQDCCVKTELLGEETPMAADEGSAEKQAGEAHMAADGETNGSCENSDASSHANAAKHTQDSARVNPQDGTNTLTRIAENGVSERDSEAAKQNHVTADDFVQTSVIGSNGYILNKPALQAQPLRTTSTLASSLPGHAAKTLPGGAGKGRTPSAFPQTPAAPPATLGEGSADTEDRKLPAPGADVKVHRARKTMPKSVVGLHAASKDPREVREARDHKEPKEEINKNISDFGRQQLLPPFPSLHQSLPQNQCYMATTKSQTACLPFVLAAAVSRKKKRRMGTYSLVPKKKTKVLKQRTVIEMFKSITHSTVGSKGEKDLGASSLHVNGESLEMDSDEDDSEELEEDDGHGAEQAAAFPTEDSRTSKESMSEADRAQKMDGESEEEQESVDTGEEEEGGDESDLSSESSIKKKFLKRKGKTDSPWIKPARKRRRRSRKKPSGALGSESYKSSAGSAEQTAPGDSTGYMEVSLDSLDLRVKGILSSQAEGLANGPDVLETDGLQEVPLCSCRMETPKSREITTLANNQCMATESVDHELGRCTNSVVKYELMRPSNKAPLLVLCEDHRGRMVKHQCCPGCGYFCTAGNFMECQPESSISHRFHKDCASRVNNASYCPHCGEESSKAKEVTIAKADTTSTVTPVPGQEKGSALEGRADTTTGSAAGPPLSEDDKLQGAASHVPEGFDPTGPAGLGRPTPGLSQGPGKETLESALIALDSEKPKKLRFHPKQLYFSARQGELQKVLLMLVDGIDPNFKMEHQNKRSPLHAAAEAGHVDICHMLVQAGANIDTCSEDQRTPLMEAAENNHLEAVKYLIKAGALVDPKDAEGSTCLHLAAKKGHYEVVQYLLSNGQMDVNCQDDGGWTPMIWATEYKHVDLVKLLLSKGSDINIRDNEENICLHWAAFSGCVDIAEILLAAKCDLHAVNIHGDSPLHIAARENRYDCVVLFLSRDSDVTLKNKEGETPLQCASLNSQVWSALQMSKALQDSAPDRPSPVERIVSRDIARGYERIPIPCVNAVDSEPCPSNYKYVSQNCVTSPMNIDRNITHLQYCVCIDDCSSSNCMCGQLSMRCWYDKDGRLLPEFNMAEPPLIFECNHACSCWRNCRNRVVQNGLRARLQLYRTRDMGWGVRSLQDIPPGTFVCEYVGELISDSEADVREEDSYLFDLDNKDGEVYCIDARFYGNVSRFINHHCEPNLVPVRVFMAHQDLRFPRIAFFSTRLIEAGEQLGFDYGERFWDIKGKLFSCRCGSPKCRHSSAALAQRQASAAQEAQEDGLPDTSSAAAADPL

[1] = SILAC ratio 3xMBT vs 3xMBTD355N pull-down, 293T cells, all values in log base 2
[2] = SILAC ratio, pull-down 3xMBT vs 3xMBTD355N
[3] = SILAC ratio DMSO/UNC0638 of protein pulled down with 3xMBT

Relative to UNC0638 UNC Light (G9a and GLP; SILAC ratio DMSO relative to UNC0638, pull-down with 3xMBT, all values in log base 2): −0.99 log base 2
Relative to UNC0638 Average (G9a and GLP; all values in log base 2): −0.99 log base 2
B1: CHEK1 (protein, UniProt O14757 1-476, looked up)
Serine/threonine-protein …: MAVPFVEDWDLVQTLGEGAYGEVQLAVNRVTEEAVAVKIVDMKRAVDCPENIKKEICINKMLNHENVVKFYGHRREGNIQYLFLEYCSGGELFDRIEPDIGMPEPDAQRFFHQLMAGVVYLHGIGITHRDIKPENLLLDERDNLKISDFGLATVFRYNNRERLLNKMCGTLPYVAPELLKRREFHAEPVDVWSCGIVLTAMLAGELPWDQPSDSCQEYSDWKEKKTYLNPWKKIDSAPLALLHKILVENPSARITIPDIKKDRWYNKPLKKGAKRPRVTSGGVSESPSGFSKHIQSNLDFSPVNSASSEENVKYSSSQPEPRTGLSLWDTSPSYIDKLVQGISFSQPTCPDHMLLNSQLLGTPGSSQNPWQRLVKRMTRFFTKLDADKSYQCLKETCEKLGYQWKKSCMNQVTISTTDRRNNKLIFKVNLLEMDDKILVDFRLSKGDGLEFKRHFLKIKGKLIDIVSSQKIWLPAT
3xMBT/D355N UNC Heavy (3×MBT domain of L3MBTL1; [1]): 0.09 log base 2
3xMBT/D355N UNC Light (3×MBT domain of L3MBTL1; [1]): 0.46 log base 2

Relative to UNC0638 UNC Heavy (G9a and GLP; [3]): 0.36 log base 2
Relative to UNC0638 UNC Light (G9a and GLP; [3]): 0.41 log base 2
Relative to UNC0638 Average (G9a and GLP): 0.38 log base 2
Candidate G9a/GLP target (G9a and GLP): ✓
B2: HNRNPL (protein, UniProt P14866 1-589, looked up)
Heterogeneous nuclear …: MSRRLLPRAEKRRRRLEQRQQPDEQRRRSGAMVKMAAAGGGGGGGRYYGGGSEGGRAPKRLKTDNAGDQHGGGGGGGGGAGAAGGGGGGENYDDPHKTPASPVVHIRGLIDGVVEADLVEALQEFGPISYVVVMPKKRQALVEFEDVLGACNAVNYAADNQIYIAGHPAFVNYSTSQKISRPGDSDDSRSVNSVLLFTILNPIYSITTDVLYTICNPCGPVQRIVIFRKNGVQAMVEFDSVQSAQRAKASLNGADIYSGCCTLKIEYAKPTRLNVFKNDQDTWDYTNPNLSGQGDPGSNPNKRQRQPPLLGDHPAEYGGPHGGYHSHYHDEGYGPPPPHYEGRRMGPPVGGHRRGPSRYGPQYGHPPPPPPPPEYGPHADSPVLMVYGLDQSKMNCDRVFNVFCLYGNVEKVKFMKSKPGAAMVEMADGYAVDRAITHLNNNFMFGQKLNVCVSKQPAIMPGQSYGLEDGSCSYKDFSESRNNRFSTPEQAAKNRIQHPSNVLHFFNAPLEVTEENFFEICDELGVKRPSSVKVFSGKSERSSSGLLEWESKSDALETLGFLNHYQMKNPNGPYPYTLKLCFSTAQHAS
3xMBT/D355N UNC Heavy (3×MBT domain of L3MBTL1; [2]): 1.15 log base 2
3xMBT/D355N UNC Light (3×MBT domain of L3MBTL1; [2]): 1.40 log base 2

Relative to UNC0638 UNC Heavy (G9a and GLP; [3]): 0.53 log base 2
Relative to UNC0638 UNC Light (G9a and GLP; [3]): 0.33 log base 2
Relative to UNC0638 Average (G9a and GLP): 0.43 log base 2
Candidate G9a/GLP target (G9a and GLP): ✓
B3: DDX46 (protein, UniProt Q7L014 2-1031, looked up)
Probable ATP-dependent RNA …: GRESRHYRKRSASRGRSGSRSRSRSPSDKRSKRGDDRRSRSRDRDRRRERSRSRDKRRSRSRDRKRLRRSRSRERDRSRERRRSRSRDRRRSRSRSRGRRSRSSSPGNKSKKTENRSRSKEKTDGGESSKEKKKDKDDKEDEKEKDAGNFDQNKLEEEMRKRKERVEKWREEQRKKAMENIGELKKEIEEMKQGKKWSLEDDDDDEDDPAEAEKEGNEMEGEELDPLDAYMEEVKEEVKKFNMRSVKGGGGNEKKSGPTVTKVVTVVTTKKAVVDSDKKKGELMENDQDAMEYSSEEEEVDLQTALTGYQTKQRKLLEPVDHGKIEYEPFRKNFYVEVPELAKMSQEEVNVFRLEMEGITVKGKGCPKPIKSWVQCGISMKILNSLKKHGYEKPTPIQTQAIPAIMSGRDLIGIAKTGSGKTIAFLLPMFRHIMDQRSLEEGEGPIAVIMTPTRELALQITKECKKFSKTLGLRVVCVYGGTGISEQIAELKRGAEIIVCTPGRMIDMLAANSGRVTNLRRVTYVVLDEADRMFDMGFEPQVMRIVDNVRPDRQTVMFSATFPRAMEALARRILSKPIEVQVGGRSVVCSDVEQQVIVIEEEKKFLKLLELLGHYQESGSVIIFVDKQEHADGLLKDLMRASYPCMSLHGGIDQYDRDSIINDFKNGTCKLLVATSVAARGLDVKHLILVVNYSCPNHYEDYVHRAGRTGRAGNKGYAYTFITEDQARYAGDIIKALELSGTAVPPDLEKLWSDFKDQQKAEGKIIKKSSGFSGKGFKFDETEQALANERKKLQKAALGLQDSDDEDAAVDIDEQIESMFNSKKRVKDMAAPGTSSVPAPTAGNAEKLEIAKRLALRINAQKNLGIESQDVMQQATNAILRGGTILAPTVSAKTIAEQLAEKINAKLNYVPLEKQEEERQDGGQNESFKRYEEELEINDFPQTARWKVTSKEALQRISEYSEAAITIRGTYFPPGKEPKEGERKIYLAIESANELAVQKAKAEITRLIKEELIRLQNSYQPTNKGRYKVL
3xMBT/D355N UNC Heavy (3×MBT domain of L3MBTL1; [2]): 2.10 log base 2
3xMBT/D355N UNC Light (3×MBT domain of L3MBTL1; [2]): 2.67 log base 2

Relative to UNC0638 UNC Heavy (G9a and GLP; [3]): 0.94 log base 2
Relative to UNC0638 UNC Light (G9a and GLP; [3]): −0.18 log base 2
Relative to UNC0638 Average (G9a and GLP): 0.38 log base 2
B4: WDR70 (protein, UniProt Q9NW82 1-654, looked up)
WD repeat-containing protein …: MERSGPSEVTGSDASGPDPQLAVTMGFTGFGKKARTFDLEAMFEQTRRTAVERSRKTLEAREKEEEMNREKELRRQNEDIEPTSSRSNVVRDCSKSSSRDTSSSESEQSSDSSDDELIGPPLPPKMVGKPVNFMEEDILGPLPPPLNEEEEEAEEEEEEEEEEENPVHKIPDSHEITLKHGTKTVSALGLDPSGARLVTGGYDYDVKFWDFAGMDASFKAFRSLQPCECHQIKSLQYSNTGDMILVVSGSSQAKVIDRDGFEVMECIKGDQYIVDMANTKGHTAMLHTGSWHPKIKGEFMTCSNDATVRTWEVENPKKQKSVFKPRTMQGKKVIPTTCTYSRDGNLIAAACQNGSIQIWDRNLTVHPKFHYKQAHDSGTDTSCVTFSYDGNVLASRGGDDSLKLWDIRQFNKPLFSASGLPTMFPMTDCCFSPDDKLIVTGTSIQRGCGSGKLVFFERRTFQRVYEIDITDASVVRCLWHPKLNQIMVGTGNGLAKVYYDPNKSQRGAKLCVVKTQRKAKQAETLTQDYIITPHALPMFREPRQRSTRKQLEKDRLDPLKSHKPEPPVAGPGRGGRVGTHGGTLSSYIVKNIALDKTDDSNPREAILRHAKAAEDSPYWVSPAYSKTQPKTMFAQVESDDEEAKNEPEWKKRKI
3xMBT/D355N UNC Heavy (3×MBT domain of L3MBTL1; [2]): 2.21 log base 2
3xMBT/D355N UNC Light (3×MBT domain of L3MBTL1; [2]): 2.93 log base 2
